Columns and labels:
[1] = target: T1, human CD112R, full length, expressed on cells (YTS-hCD112R; Jurkat-NFAT-luc-hCD112R) (human, UniProt Q6DKI7 42-326); assay: cell-based or functional assay
T1 sequence (looked up): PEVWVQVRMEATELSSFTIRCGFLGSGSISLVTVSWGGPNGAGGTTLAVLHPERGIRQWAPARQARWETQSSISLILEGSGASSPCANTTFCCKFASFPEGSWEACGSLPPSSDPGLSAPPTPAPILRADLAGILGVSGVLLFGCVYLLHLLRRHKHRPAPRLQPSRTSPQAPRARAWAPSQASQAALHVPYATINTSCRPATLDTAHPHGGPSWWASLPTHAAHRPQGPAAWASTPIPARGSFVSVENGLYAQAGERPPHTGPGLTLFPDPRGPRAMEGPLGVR

[2] = target: V90A, W100A, or E145A mutation of hCD112R (hCD112R-ECD-mFc variants, as a group); assay: SPR, multi-cycle, H733-hIgG4 captured by anti-hFc Ab, hCD112R-ECD-mFc variants as analytes (3.125-100 nM)
[3] = target: T2, hCD112R-ECD-His6-Avi (human, UniProt Q6DKI7 42-172, biotinylated (Avi tag) in the ELISA assays); assay: ELISA-based competition, biotinylated hCD112R-ECD-His6-Avi on streptavidin, competitor hCD112-ECD-mFc at 0.1 ug/ml
T2 construct: range 42-172; Expressed in HEK 293F cells; Analyte in SPR, and captured on streptavidin in ELISA; also called biotinylated hCD112R-ECD-His6-Avi; not shown: C-terminal His6-Avi tag
T2 sequence (looked up): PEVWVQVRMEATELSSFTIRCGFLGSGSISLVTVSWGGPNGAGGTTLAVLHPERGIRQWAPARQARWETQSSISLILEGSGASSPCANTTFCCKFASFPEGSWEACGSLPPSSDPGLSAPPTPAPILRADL
Procedure: Biotinylated hCD112R-ECD-His₆-Avi protein antigen was captured with streptavidin (Sigma) coated 96-well plates (Nunc, MaxiSorp™). H733 serially diluted in 2% milk/PBS containing 0.1 μg/ml of the hCD112-ECD-mFc protein were added to the ELISA plates to test for competitive binding between hCD112R and hCD112. The signal was measured via ligand detection using HRP-anti-mouse IgG secondary Ab (Thermo Fisher Scientific).

[4] = target: T2, hCD112R-ECD-His6-Avi; assay: SPR (Biacore T200), multi-cycle, H733 captured by anti-hFc Ab, hCD112R-ECD-His6-Avi as analyte, 1:1 Langmuir model
Procedure: (§1) Anti-hFc Ab (Thermo Fisher) was covalently attached to surfaces of a CM5 sensor chip using an amine coupling kit (GE Healthcare). Abs at optimal concentrations were captured on the chip and the analytes (hCD112R-ECD-His₆-Avi) at single concentration or serial dilutions were then injected. Binding kinetics were evaluated using a 1:1 Langmuir binding model. The association rates (ka), dissociation rates (kd), and affinity constants (KD) were calculated using Biacore T200 evaluation software.

[5] = target: T2, hCD112R-ECD-His6-Avi; assay: SPR (Biacore T200), multi-cycle; H733 captured on anti-hFc Ab, hCD112R-ECD-His6-Avi injected; 1:1 Langmuir [Cont') B]
Procedure: as §1

[6] = target: T3, hCD112R-ECD-mFc E145A variant (human; mouse, UniProt Q6DKI7 42-172); assay: SPR (Biacore T200), multi-cycle; H733-hIgG4 captured on anti-hFc Ab, hCD112R-ECD-mFc variant injected (3.125-100 nM); 1:1 Langmuir [Cont') B]
T3 construct: range 42-172; also called E145A mutation of hCD112R; not shown: Fc domain of mouse IgG2a
T3 sequence (looked up): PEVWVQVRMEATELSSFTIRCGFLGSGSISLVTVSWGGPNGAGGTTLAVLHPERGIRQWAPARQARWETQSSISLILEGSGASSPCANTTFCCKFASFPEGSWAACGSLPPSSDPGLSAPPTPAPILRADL
Procedure: (§2) Kinetic analyses of the bindings of WT or mutated hCD112R-ECD-mFc proteins to H733 and hCD112-ECD were performed on a Biacore T200 instrument (Biacore, GE Healthcare). For the single-cycle SPR analysis, anti-mFc Ab (Thermo Fisher) was covalently attached to surfaces of a CM5 sensor chip using an amine coupling kit (GE Healthcare). WT or mutated hCD112R-ECD mFc fusion proteins were captured on the chip and H733-hIgG4 or hCD112-ECD-hFc were then injected. For the multi-cycle SPR analysis, anti-hFc Ab (Thermo Fisher) was covalently attached to surfaces of a CM5 sensor chip using an amine coupling kit (GE Healthcare). H733-hIgG4 or hCD112-ECD-hFc protein was captured on the chip and 2-fold serially diluted WT or mutated hCD112R-ECD-mFc proteins (3.125-100 nM) were then injected. Binding kinetics were evaluated using a 1:1 Langmuir binding model. The association rates (ka), dissociation rates (kd), and affinity constants (KD) were calculated using Biacore T200 evaluation software.

[7] = target: T4, hCD112R-ECD-mFc W100A variant (human; mouse, UniProt Q6DKI7 42-172); assay: as above
T4 construct: range 42-172; also called W100A mutation of hCD112R; not shown: Fc domain of mouse IgG2a
T4 sequence (looked up): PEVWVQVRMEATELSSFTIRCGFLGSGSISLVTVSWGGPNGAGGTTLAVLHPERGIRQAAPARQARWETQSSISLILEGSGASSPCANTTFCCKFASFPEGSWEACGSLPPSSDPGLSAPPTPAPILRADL
Procedure: as §2

EC50 of luciferase production, Jurkat-NFAT-luc-hCD112R reporter cells with CHO-OKT3scFv_hCD112 cells [1]: 0.39 mg/L | fold decrease of binding as compared with WT hCD112R [2]: 4 to 15 fold | IC50 [3]: 0.87 mg/L | Kd [4]: 0.65 nM | koff [5]: 0.000865 s⁻¹ | kon [5]: 1.33e+06 M⁻¹ s⁻¹ | Kd [6]: 1.42 nM | koff [6]: 0.000418 s⁻¹ | kon [6]: 296000 M⁻¹ s⁻¹ | Kd [7]: 5.64 nM | koff [7]: 0.000574 s⁻¹ | kon [7]: 102000 M⁻¹ s⁻¹
B1: H733 (humanized Ab composed of 733-VH-humanV2 and 733-VL-human-C91S) (antibody, human IgG4, V domains shown)
VH: QVQLVQSGAEVKKPGASVKVSCKASGYTFTNYLIEWVRQAPGQGLEWMGVINPGHGFTNYAQKFQGRVTMTRDTSTSTVYMELSSLRSEDTAVYYCARGEWDWYFDVWGQGTTVTVSS
VL: DIQLTQSPSFLSASVGDRVTITCKASQNVGTAVAWYQQKPGKAPKLLIYSTSNRYTGVPSRFSGSGSGTEFTLTISSLQPEDFATYYCQQSSSYPFTFGGGTKVEIK
notes: also called H733-hIgG4; H733 mAb (hIgG4 form)
